B1: TRIM39 (parent)
chain: CKACITRWWEDLERDFPCPVCRKT

Variants of: B1
Experiment: protein stability index of a GFP-peptide fusion (GPS, HEK-293T) (PSI 1-6); higher = more stable
Details: c terminus: a fixed tail appended
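Note: lentivirally expressed fusions sorted by FACS into six bins by GFP to DsRed ratio, PSI derived from sequencing read proportions per bin multiplied by bin number.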

Row | Variant | protein stability index
1 | CKACKTRWWEDLERDFPCPVCRKT [I5K] | 3.88
2 | CKACWTRWWEDLERDFPCPVCRKT [I5W] | 3.99
3 | CKACFTRWWEDLERDFPCPVCRKT [I5F] | 4.22
4 | CKACHTRWWEDLERDFPCPVCRKT [I5H] | 4.49
5 | CKACNTRWWEDLERDFPCPVCRKT [I5N] | 4.12
6 | CKACYTRWWEDLERDFPCPVCRKT [I5Y] | 4.39
7 | CKACDTRWWEDLERDFPCPVCRKT [I5D] | 4.36
8 | CKACTTRWWEDLERDFPCPVCRKT [I5T] | 3.99
9 | CKACQTRWWEDLERDFPCPVCRKT [I5Q] | 4.31
10 | CKACGTRWWEDLERDFPCPVCRKT [I5G] | 3.86
11 | CKACRTRWWEDLERDFPCPVCRKT [I5R] | 3.93
12 | CKACITRWWENLERDFPCPVCRKT [D11N] | 4.06
13 | CKACITRWWEILERDFPCPVCRKT [D11I] | 2.53
14 | CKACITRWWEFLERDFPCPVCRKT [D11F] | 3.5
15 | CKACITRWWESLERDFPCPVCRKT [D11S] | 4.28
16 | CKACITRWWELLERDFPCPVCRKT [D11L] | 3.57
17 | CKACITRWWEMLERDFPCPVCRKT [D11M] | 3.9
18 | CKACITRWWEPLERDFPCPVCRKT [D11P] | 3.93
19 | CKACITRWWEDLETDFPCPVCRKT [R14T] | 4.63
20 | CKACITRWWEDLEWDFPCPVCRKT [R14W] | 3.52
21 | CKACITRWWEDLEQDFPCPVCRKT [R14Q] | 3.78
22 | CKACITRWWEDLECDFPCPVCRKT [R14C] | 4.09
23 | CKACITRWWEDLEADFPCPVCRKT [R14A] | 4.19
24 | CKACITRWWEDLEVDFPCPVCRKT [R14V] | 3.76

Row | Variant | protein stability index
25 | CKACITRWWEDLESDFPCPVCRKT [R14S] | 4.4
26 | CKACITRWWEDLEFDFPCPVCRKT [R14F] | 3.69
27 | CKACITRWWEDLELDFPCPVCRKT [R14L] | 3.4
28 | CKACITRWWEDLEEDFPCPVCRKT [R14E] | 4.59
29 | CKACITRWWEDLERDFGCPVCRKT [P17G] | 3.46
30 | CKACITRWWEDLERDFMCPVCRKT [P17M] | 4.09
31 | CKACITRWWEDLERDFCCPVCRKT [P17C] | 3.98
32 | CKACITRWWEDLERDFFCPVCRKT [P17F] | 4.25
33 | CKACITRWWEDLERDFQCPVCRKT [P17Q] | 4.2
34 | CKACITRWWEDLERDFYCPVCRKT [P17Y] | 3.9
35 | CKACITRWWEDLERDFRCPVCRKT [P17R] | 4.27
36 | CKACITEWWEDLERDFPCPVCRKT [R7E] | 3.73
37 | CKACITMWWEDLERDFPCPVCRKT [R7M] | 3.72
38 | CKACITVWWEDLERDFPCPVCRKT [R7V] | 3.28
39 | CKACITWWWEDLERDFPCPVCRKT [R7W] | 3.97
40 | CKACITDWWEDLERDFPCPVCRKT [R7D] | 4
41 | CKACITAWWEDLERDFPCPVCRKT [R7A] | 4.08
42 | CKACITHWWEDLERDFPCPVCRKT [R7H] | 5.06
43 | CKACITIWWEDLERDFPCPVCRKT [R7I] | 2.96
44 | CKACITYWWEDLERDFPCPVCRKT [R7Y] | 4.85
45 | CKACITSWWEDLERDFPCPVCRKT [R7S] | 3.98
46 | YKACITRWWEDLERDFPCPVCRKT [C1Y] | 1.72
47 | HKACITRWWEDLERDFPCPVCRKT [C1H] | 2.16
48 | RKACITRWWEDLERDFPCPVCRKT [C1R] | 2.43

Row | Variant | protein stability index
49 | FKACITRWWEDLERDFPCPVCRKT [C1F] | 1.42
50 | WKACITRWWEDLERDFPCPVCRKT [C1W] | 2.56
51 | MKACITRWWEDLERDFPCPVCRKT [C1M] | 2.26
52 | PKACITRWWEDLERDFPCPVCRKT [C1P] | 2.42
53 | EKACITRWWEDLERDFPCPVCRKT [C1E] | 2.07
54 | NKACITRWWEDLERDFPCPVCRKT [C1N] | 1.67
55 | CKACITRWWEDVERDFPCPVCRKT [L12V] | 3.63
56 | CKACITRWWEDPERDFPCPVCRKT [L12P] | 4.06
57 | CKACITRWWEDKERDFPCPVCRKT [L12K] | 4.19
58 | CKACITRWWEDDERDFPCPVCRKT [L12D] | 4.05
59 | CKACITRWWEDHERDFPCPVCRKT [L12H] | 2.89
60 | CKACITRWWEDNERDFPCPVCRKT [L12N] | 4.24
61 | CKACITRWWEDWERDFPCPVCRKT [L12W] | 3.87
62 | CKACITRWWEDLERIFPCPVCRKT [D15I] | 2.43
63 | CKACITRWWEDLERKFPCPVCRKT [D15K] | 2.98
64 | CKACITRWWEDLERSFPCPVCRKT [D15S] | 3.79
65 | CKACITRWWEDLEREFPCPVCRKT [D15E] | 3.54
66 | CKACITRWWEDLERVFPCPVCRKT [D15V] | 3
67 | CKACITRWWEDLERYFPCPVCRKT [D15Y] | 2.84
68 | CKACITRWWEDLERNFPCPVCRKT [D15N] | 3.73
69 | CKACITRWWEDLERDFPCCVCRKT [P19C] | 2.26
70 | CKACITRWWEDLERDFPCRVCRKT [P19R] | 2.82
71 | CKACITRWWEDLERDFPCQVCRKT [P19Q] | 3.12
72 | CKACITRWWEDLERDFPCMVCRKT [P19M] | 2.88

Row | Variant | protein stability index
73 | CKACITRWWEDLERDFPCNVCRKT [P19N] | 3.29
74 | CKACITRWWEDLERDFPCTVCRKT [P19T] | 3.35
75 | CKACITRWWEDLERDFPCLVCRKT [P19L] | 2.65
76 | CKACITRWWEDLERDFPCKVCRKT [P19K] | 2.69
77 | CKACITRWWEDLERDFPCAVCRKT [P19A] | 3.15
78 | CKACITRWWEDLERDFPCPECRKT [V20E] | 4.77
79 | CKACITRWWEDLERDFPCPPCRKT [V20P] | 2.36
80 | CKACITRWWEDLERDFPCPFCRKT [V20F] | 3.78
81 | CKACITRWWEDLERDFPCPICRKT [V20I] | 4.22
82 | CKACITRWWEDLERDFPCPACRKT [V20A] | 4.24
83 | CKACITRWWEDLERDFPCPQCRKT [V20Q] | 4.09
84 | CKACITRWWEDLERDFPCPYCRKT [V20Y] | 3.73
85 | CKACITRWDEDLERDFPCPVCRKT [W9D] | 4.55
86 | CKACITRWMEDLERDFPCPVCRKT [W9M] | 4.11
87 | CKACITRWEEDLERDFPCPVCRKT [W9E] | 4.24
88 | CKACITRWTEDLERDFPCPVCRKT [W9T] | 4.25
89 | CKACITRWQEDLERDFPCPVCRKT [W9Q] | 4.69
90 | CKACITRWSEDLERDFPCPVCRKT [W9S] | 4.56
91 | CKACITRWFEDLERDFPCPVCRKT [W9F] | 4.07
92 | CKACITRWGEDLERDFPCPVCRKT [W9G] | 4.55
93 | CKACITRWVEDLERDFPCPVCRKT [W9V] | 4.31
94 | CKARITRWWEDLERDFPCPVCRKT [C4R] | 2.18

From the supplement of paper PMC10567573
